For assay [1], the target named is HIV-1 Env of strain CNE3 (clade AE), on Env-pseudovirus (HIV-1 strain CNE3). The experiment in a line: cell-based or functional assay.
For assay [2], the target named is HIV-1 Env of strain TH976.17 (clade AE), on Env-pseudovirus (HIV-1 strain TH976.17). Nature of the assay: cell-based or functional assay.

B1: CAP256-VRC26.07 (antibody, V domains shown)
VH: EVQLVESGGGVVQPGRSLRLSCVGSQFSFNRYGMHWVRQAPGKGLEWVAGISFDGTDRYHADNVWGRFTISRDNSKNTLYLQMSSLRAEDTALYYCAKDLREDECEEWWSDYYDFGKKLPCRKSRGVAGVFDKWGQGTMVTVSS
VL: QAVLTQPPSVSAAPGQNVTISCSGSGSNIGNNFVSWYQQRPGTAPKLLIYESNKRPSGIPDRFSGSKSGTSATLAITGLQTGDEAYYYCATWAARLNSARVFGTGTMVTVLG
Consider B1, for which the “IC50, neutralization of Env-pseudovirus (TZM-bl assay)” value in assay [1] and in assay [2] was over 50 µg/mL each time.
